Molecular target: SARS-CoV-2 full-length nucleocapsid (N) protein (N-FL: 1-419) (SARS-CoV-2, UniProt P0DTC9 1-419)
Assay: ELISA

B1: human monoclonal antibody nCoV396, recombinant IgG1 (antibody, V domains shown)
VH: QVQLVESGGGVVQPGRSLRLSCAASGFTFSSYIMHWVRQAPGKGLEWVAVISYDGSNEAYADSVKGRFTISRDNSKNTLYLQMSSLRAEDTGVYYCARETGDYSSSWYDSWGRGTLVTVSS
VL: QLVLTQSPSASASLGASVKLTCTLSSGHSNYAIAWHQQQPEKGPRYLMKVNSDGSHTKGDGIPDRFSGSSSGAERYLTISSLQSEDEADYYCQTWGTGIQVFGGGTKLTVL
EC50: 3.2 ng/mL

Source: PMC8113585 (2020)
